Laboratory results taken from patent publication US20220185903A1, “Novel bispecific binding molecule and drug conjugate thereof” (priority 2019, published 2022).
Where a SMILES comes first, the peptide text is derived from it. [ ]: non-standard residue; d: D form. The star is where a group is joined. Dolaproine = CO[C@@H]([C@@H]1CCCN1)[C@@H](C)C(=O)O; Dil = CC[C@H](C)[C@H](NC)[C@@H](CC(=O)O)OC; X1 = C[C@@H](N*)[C@@H](O)c1ccccc1; NMeV = CN[C@H](C(=O)O)C(C)C

Key:
[1] = tested on: CD20−/CXCR4+ Jurkat cells; test: Killing activity of ADC on co-cultured Ramos/Jurkat cells: Jurkat count; format: cell-based; conditions: co-cultured Ramos/Jurkat 1:1, 72 hours, flow cytometer count
Experimental: (§1) 6.2 Analysis of Killing Activity of ADC on Co-Cultured Ramos/Jurkat Cells
(§2) Ramos and Jurkat cells (RPMI 1640 medium containing 10% FBS and 1% double antibody) were cultured, respectively. Jurkat cells were stained with calcein-AM (eBioscience) and Ramos cells stained with Celltracker Organge CMTMR (Invitrogen) according to protocols provided by the manufacturer, followed by washed for three times with PBS. After cell count, Ramos and Jurkat cells were mixed at a ratio of 1:1, and 2×10^4 Ramos/Jurkat mixed cells were added to a U-shaped bottom 96-well plate (90 ul/well). 10 ul of SYN-AC, RTX or RXT-AC with different concentrations was added to the 96-well plate above, and incubated at 37° C., 5% CO2 for 72 hours. The numbers of the Ramos and Jurkat cells were counted with a flow cytometer (BD LSR II with a BD high throughput Sampler (HTS)).

CD20+/CXCR4+ Ramos cells = test: Killing activity of ADC on co-cultured Ramos/Jurkat cells: Ramos count; format: cell-based
Experimental: as §1, §2

CXCR4 [2] = molecular target: T1, CXCR4 (UniProt P61073 1-352, limits assumed); test: cell-based or functional assay
CXCR4 [3] = molecular target: T1, CXCR4; test: flow cytometry on CXCR4+/CD20- Jurkat cells
Experimental: (§3) The CXCR4⁺/CD20⁻ Jurkat cells and CXCR4^dim/CD20⁺JAB cells were cultured in RPMI 1640 medium containing 10% FBS and […]). Cells were collected by centrifugation, and washed with PBS for 3-4 times. After blocked by 1% BSA (in PBS) at 4° C. for 1 h, the cells were resuspended with PBS with 1% BSA at a density of 5×10⁵/100 μL. […] After being washed with PBS with 1% BSA for 3 times, cells were resuspended with PBS/1% BSA containing a PE-anti-human Fc antibody (Clone HP6017, Biolegend, CA), and incubated at 4° C. for 2 hours. Then an LSR II flow cytometer (Becton Dickinson, N.J.) was applied, and FlowJo software (TreeStar, OR) was used for analysis. Data was analyzed by nonlinear regression using a log (agonist) vs. response model in Prizm Graphpad software.

CD20 = molecular target: T2, CD20 (UniProt P11836 1-297, limits assumed); test: cell-based or functional assay
T2 sequence (looked up): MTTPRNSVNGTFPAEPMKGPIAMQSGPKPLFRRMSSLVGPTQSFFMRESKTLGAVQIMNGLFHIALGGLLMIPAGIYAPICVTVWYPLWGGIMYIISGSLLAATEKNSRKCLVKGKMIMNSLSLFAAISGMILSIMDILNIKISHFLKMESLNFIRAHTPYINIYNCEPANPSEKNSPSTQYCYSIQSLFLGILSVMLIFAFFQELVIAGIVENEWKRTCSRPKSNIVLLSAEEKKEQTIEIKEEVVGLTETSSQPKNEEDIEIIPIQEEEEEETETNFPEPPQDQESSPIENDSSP

CXCR4 [4] = molecular target: T1, CXCR4; test: flow cytometry on CXCR4+/CD20- Jurkat cells, PE-anti-human Fc detection
Experimental: as §3

T1 sequence (P61073 whole entry): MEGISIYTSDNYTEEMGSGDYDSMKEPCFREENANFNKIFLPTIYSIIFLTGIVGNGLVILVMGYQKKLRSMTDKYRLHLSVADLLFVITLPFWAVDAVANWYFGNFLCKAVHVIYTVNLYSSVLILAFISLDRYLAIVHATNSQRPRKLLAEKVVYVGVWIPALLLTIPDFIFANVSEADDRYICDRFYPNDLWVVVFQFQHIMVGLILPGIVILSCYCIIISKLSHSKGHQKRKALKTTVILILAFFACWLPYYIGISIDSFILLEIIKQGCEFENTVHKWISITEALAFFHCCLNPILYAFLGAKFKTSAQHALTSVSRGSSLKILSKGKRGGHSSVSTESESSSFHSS

In the case of `CC[C@H](C)[C@@H]([C@@H](CC(=O)N1CCC[C@H]1[C@H](OC)[C@@H](C)C(=O)N[C@H](C)[C@@H](O)c1ccccc1)OC)N(C)C(=O)[C@@H](NC(=O)[C@@H](NC)C(C)C)C(C)C` [MMAE, monomethylalistatin E, reference compound] (H-[NMeV]V[Dil][Dolaproine]-X1), the EC50 [1] is reported as 24.5 ± 6.8 nM, the “TI (therapeutic index)” value (CD20+/CXCR4+ Ramos cells; co-cultured Jurkat and Ramos cells, selectivity Jurkat vs Ramos) is reported as 2.7 and the EC50 (CD20+/CXCR4+ Ramos cells; co-cultured Ramos/Jurkat 1:1, 72 hours, flow cytometer count) is reported as 9.1 ± 3.8 nM.

B1: SYN-AC-MMAE (SYN-AC conjugated with NHS-PEG4-MMAE) (other)
heavy: QVTLRESGPALVKPTQTLTLTCTFSGFSLSTSGMSVGWIRQPPGKALEWLADIWWDDKKDYNPSLKSRLTISKDTSKNQVVLKVTNMDPADTATYYCARSMITNWYFDVWGAGTTVTVSSASTKGPSVFPLAPSSKSTSGGTAALGCLVKDYFPEPVTVSWNSGALTSGVHTFPAVLQSSGLYSLSSVVTVPSSSLGTQTYICNVNHKPSNTKVDKKVEPKSCDKTHTCPPCPAPPVAGPSVFLFPPKPKDTLMISRTPEVTCVVVDVSHEDPEVKFNWYVDGVEVHNAKTKPREEQYNSTYRVVSVLTVLHQDWLNGKEYKCKVSNKGLPSSIEKTISKAKGQPREPQVYTLPPSRDELTKNQVSLTCLVKGFYPSDIAVEWESNGQPENNYKTTPPVLDSDGSFFLYSKLTVDKSRWQQGNVFSCSVMHEALHNHYTQKSLSLSPGK
light: DIQMTQSPSTLSASVGDRVTITCKCQLSVGYMHWYQQKPGKAPKLLIYDTSKLASGVPSRFSGSGSGTEFTLTISSLQPDDFATYYCFQGSGYPFTFGGGTKLEIKRTVAAPSVFIFPPSDEQLKSGTASVVCLLNNFYPREAKVQWKVDNALQSGNSQESVTEQDSGGSGAKLAALKAKLAALKGGGGSYRKCRGGRRWCYQKGGGGSELAALEAELAALEAGGSGDSTYSLSSTLTLSKADYEKHKVYACEVTHQGLSSPVTKSFNRGEC
modifications: conjugated with NHS-PEG4-MMAE, 0 to 2 per light chain by MS; sites not stated; conjugated with NHS-PEG4-MMAE, 0 to 2 per heavy chain by MS; sites not stated
For B1, the “EC50 (nM), killing of Jurkat cells in co-cultured Ramos/Jurkat cells, 72 h” value (CXCR4 [2]) was 21 nM and the “EC50 (nM), killing of Ramos cells in co-cultured Ramos/Jurkat cells, 72 h” value (CXCR4 [2]) was 12.6 nM.

B2: SYN-AC (Synagis, anti-RSV, with the CXCR4 antagonistic peptide inserted into the constant region of the light chain) (bispecific antibody, human IgG1, kappa)
heavy: B1 heavy
light: B1 light
notes: hIgG1 Fc with E233P/L234V/L235A/deltaG236+A327G/A330S/P331S
B2: binds (CXCR4 [3]).

B3: RTX-MMAE (RTX conjugated with NHS-PEG4-MMAE) (other)
heavy: QVQLQQPGAELVKPGASVKMSCKASGYTFTSYNMHWVKQTPGRGLEWIGAIYPGNGDTSYNQKFKGKATLTADKSSSTAYMQLSSLTSEDSAVYYCARSTYYGGDWYFNVWGAGTTVTVSAASTKGPSVFPLAPSSKSTSGGTAALGCLVKDYFPEPVTVSWNSGALTSGVHTFPAVLQSSGLYSLSSVVTVPSSSLGTQTYICNVNHKPSNTKVDKKVEPKSCDKTHTCPPCPAPPVAGPSVFLFPPKPKDTLMISRTPEVTCVVVDVSHEDPEVKFNWYVDGVEVHNAKTKPREEQYNSTYRVVSVLTVLHQDWLNGKEYKCKVSNKGLPSSIEKTISKAKGQPREPQVYTLPPSRDELTKNQVSLTCLVKGFYPSDIAVEWESNGQPENNYKTTPPVLDSDGSFFLYSKLTVDKSRWQQGNVFSCSVMHEALHNHYTQKSLSLSPGK
light: QIVLSQSPAILSASPGEKVTMTCRASSSVSYIHWFQQKPGSSPKPWIYATSNLASGVPVRFSGSGSGTSYSLTISRVEAEDAATYYCQQWTSNPPTFGGGTKLEIKRTVAAPSVFIFPPSDEQLKSGTASVVCLLNNFYPREAKVQWKVDNALQSGNSQESVTEQDSKDSTYSLSSTLTLSKADYEKHKVYACEVTHQGLSSPVTKSFNRGEC
modifications: conjugated with NHS-PEG4-MMAE, 0 to 2 per light chain by MS; sites not stated; conjugated with NHS-PEG4-MMAE, 0 to 2 per heavy chain by MS; sites not stated
For B3, the “EC50 (nM), killing of Ramos cells in co-cultured Ramos/Jurkat cells, 72 h” value (CD20) was 6 nM.

B4: RTX-AC-MMAE (RTX-AC conjugated with NHS-PEG4-MMAE) (other)
heavy: B3 heavy
light: QIVLSQSPAILSASPGEKVTMTCRASSSVSYIHWFQQKPGSSPKPWIYATSNLASGVPVRFSGSGSGTSYSLTISRVEAEDAATYYCQQWTSNPPTFGGGTKLEIKRTVAAPSVFIFPPSDEQLKSGTASVVCLLNNFYPREAKVQWKVDNALQSGNSQESVTEQDSGGSGAKLAALKAKLAALKGGGGSYRKCRGGRRWCYQKGGGGSELAALEAELAALEAGGSGDSTYSLSSTLTLSKADYEKHKVYACEVTHQGLSSPVTKSFNRGEC
modifications: conjugated with NHS-PEG4-MMAE, 0 to 2 per light chain by MS; sites not stated; conjugated with NHS-PEG4-MMAE, 0 to 3 per heavy chain by MS; sites not stated
With B4 the “EC50 (nM), killing of Ramos cells in co-cultured Ramos/Jurkat cells, 72 h” value (CXCR4 [2]) was 0.29 nM and the “EC50 (nM), killing of Ramos cells in co-cultured Ramos/Jurkat cells, 72 h” value (CD20) was 0.29 nM.

B5: RTX-AC (Rituxan with the CXCR4 antagonistic peptide inserted into the constant region of the light chain) (bispecific antibody, human IgG1, kappa)
heavy: B3 heavy
light: B4 light
notes: hIgG1 Fc with E233P/L234V/L235A/deltaG236+A327G/A330S/P331S; also called RXT-AC
B5: binds (CXCR4 [3]).

B6: RTX (Rituxan, anti-CD20 antibody) (antibody, V domains shown)
VH: QVQLQQPGAELVKPGASVKMSCKASGYTFTSYNMHWVKQTPGRGLEWIGAIYPGNGDTSYNQKFKGKATLTADKSSSTAYMQLSSLTSEDSAVYYCARSTYYGGDWYFNVWGAGTTVTVSA
VL: QIVLSQSPAILSASPGEKVTMTCRASSSVSYIHWFQQKPGSSPKPWIYATSNLASGVPVRFSGSGSGTSYSLTISRVEAEDAATYYCQQWTSNPPTFGGGTKLEIKR
notes: Rituxan Fab heavy chain cloned into pFuse-hIgG1-Fc carrying E233P/L234V/L235A/deltaG236+A327G/A330S/P331S; expressed in HEK293
B6: no binding (CXCR4 [4]).
